{"source": "patent US20250339531A1", "about": "“DUX4 POLYPEPTIDES AND NUCLEIC ACIDS FOR TREATING INFLAMMATORY AND AUTOIMMUNE CONDITIONS” (Fred Hutchinson Cancer Center, priority 2021, published 2025)", "test_in_all_cases": "anti-FLAG co-IP LC-MS, exp 3, +IFNg +Dox", "key": {"[1]": {"biological_target": "Antigen peptide transporter 1 (Homo sapiens) (UniProt Q03518)"}, "[2]": {"biological_target": "Protein disulfide-isomerase (Homo sapiens) (UniProt P07237)", "sequence (P07237 18-508 limits assumed)": "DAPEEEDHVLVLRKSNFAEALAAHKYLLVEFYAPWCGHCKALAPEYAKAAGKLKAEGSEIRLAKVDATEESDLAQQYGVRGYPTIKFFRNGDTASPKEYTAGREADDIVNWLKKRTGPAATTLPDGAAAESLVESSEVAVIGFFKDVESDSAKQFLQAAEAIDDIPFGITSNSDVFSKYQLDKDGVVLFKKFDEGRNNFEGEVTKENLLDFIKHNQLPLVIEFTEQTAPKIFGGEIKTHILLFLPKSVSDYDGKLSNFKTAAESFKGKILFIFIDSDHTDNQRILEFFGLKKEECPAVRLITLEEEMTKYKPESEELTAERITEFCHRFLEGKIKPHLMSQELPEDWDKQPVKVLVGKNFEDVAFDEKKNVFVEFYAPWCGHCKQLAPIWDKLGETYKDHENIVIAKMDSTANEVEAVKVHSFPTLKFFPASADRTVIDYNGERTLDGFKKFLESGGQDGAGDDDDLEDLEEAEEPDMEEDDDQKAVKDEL"}, "Filamin-C (Homo sapiens)": {"biological_target": "Filamin-C (Homo sapiens) (UniProt Q14315)"}, "[3]": {"biological_target": "D-3-phosphoglycerate dehydrogenase (Homo sapiens) (UniProt O43175)", "sequence (O43175 2-533 limits assumed)": "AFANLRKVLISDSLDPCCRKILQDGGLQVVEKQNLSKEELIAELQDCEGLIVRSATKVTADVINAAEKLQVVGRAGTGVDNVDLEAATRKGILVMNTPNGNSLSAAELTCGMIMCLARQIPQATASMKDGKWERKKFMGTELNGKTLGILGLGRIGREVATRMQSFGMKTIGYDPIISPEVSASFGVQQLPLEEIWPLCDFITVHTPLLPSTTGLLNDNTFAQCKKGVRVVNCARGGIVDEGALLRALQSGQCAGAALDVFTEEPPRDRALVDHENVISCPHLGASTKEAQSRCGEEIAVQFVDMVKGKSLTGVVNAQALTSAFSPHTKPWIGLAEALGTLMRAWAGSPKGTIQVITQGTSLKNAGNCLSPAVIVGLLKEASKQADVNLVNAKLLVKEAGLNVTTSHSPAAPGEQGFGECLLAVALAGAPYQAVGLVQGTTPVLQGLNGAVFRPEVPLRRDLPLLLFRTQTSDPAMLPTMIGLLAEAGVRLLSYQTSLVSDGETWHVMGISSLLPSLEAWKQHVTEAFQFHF"}, "[4]": {"biological_target": "40S ribosomal protein S14 (Homo sapiens) (UniProt P62263)"}, "[5]": {"biological_target": "KN motif and ankyrin repeat domain-containing protein 2 (Homo sapiens) (UniProt Q63ZY3)"}, "[6]": {"biological_target": "Ribosome-binding protein 1 (Homo sapiens) (UniProt Q9P2E9)"}, "[7]": {"biological_target": "Spectrin beta chain (Homo sapiens) (UniProt Q01082)", "sequence (Q01082 2-2364 limits assumed)": "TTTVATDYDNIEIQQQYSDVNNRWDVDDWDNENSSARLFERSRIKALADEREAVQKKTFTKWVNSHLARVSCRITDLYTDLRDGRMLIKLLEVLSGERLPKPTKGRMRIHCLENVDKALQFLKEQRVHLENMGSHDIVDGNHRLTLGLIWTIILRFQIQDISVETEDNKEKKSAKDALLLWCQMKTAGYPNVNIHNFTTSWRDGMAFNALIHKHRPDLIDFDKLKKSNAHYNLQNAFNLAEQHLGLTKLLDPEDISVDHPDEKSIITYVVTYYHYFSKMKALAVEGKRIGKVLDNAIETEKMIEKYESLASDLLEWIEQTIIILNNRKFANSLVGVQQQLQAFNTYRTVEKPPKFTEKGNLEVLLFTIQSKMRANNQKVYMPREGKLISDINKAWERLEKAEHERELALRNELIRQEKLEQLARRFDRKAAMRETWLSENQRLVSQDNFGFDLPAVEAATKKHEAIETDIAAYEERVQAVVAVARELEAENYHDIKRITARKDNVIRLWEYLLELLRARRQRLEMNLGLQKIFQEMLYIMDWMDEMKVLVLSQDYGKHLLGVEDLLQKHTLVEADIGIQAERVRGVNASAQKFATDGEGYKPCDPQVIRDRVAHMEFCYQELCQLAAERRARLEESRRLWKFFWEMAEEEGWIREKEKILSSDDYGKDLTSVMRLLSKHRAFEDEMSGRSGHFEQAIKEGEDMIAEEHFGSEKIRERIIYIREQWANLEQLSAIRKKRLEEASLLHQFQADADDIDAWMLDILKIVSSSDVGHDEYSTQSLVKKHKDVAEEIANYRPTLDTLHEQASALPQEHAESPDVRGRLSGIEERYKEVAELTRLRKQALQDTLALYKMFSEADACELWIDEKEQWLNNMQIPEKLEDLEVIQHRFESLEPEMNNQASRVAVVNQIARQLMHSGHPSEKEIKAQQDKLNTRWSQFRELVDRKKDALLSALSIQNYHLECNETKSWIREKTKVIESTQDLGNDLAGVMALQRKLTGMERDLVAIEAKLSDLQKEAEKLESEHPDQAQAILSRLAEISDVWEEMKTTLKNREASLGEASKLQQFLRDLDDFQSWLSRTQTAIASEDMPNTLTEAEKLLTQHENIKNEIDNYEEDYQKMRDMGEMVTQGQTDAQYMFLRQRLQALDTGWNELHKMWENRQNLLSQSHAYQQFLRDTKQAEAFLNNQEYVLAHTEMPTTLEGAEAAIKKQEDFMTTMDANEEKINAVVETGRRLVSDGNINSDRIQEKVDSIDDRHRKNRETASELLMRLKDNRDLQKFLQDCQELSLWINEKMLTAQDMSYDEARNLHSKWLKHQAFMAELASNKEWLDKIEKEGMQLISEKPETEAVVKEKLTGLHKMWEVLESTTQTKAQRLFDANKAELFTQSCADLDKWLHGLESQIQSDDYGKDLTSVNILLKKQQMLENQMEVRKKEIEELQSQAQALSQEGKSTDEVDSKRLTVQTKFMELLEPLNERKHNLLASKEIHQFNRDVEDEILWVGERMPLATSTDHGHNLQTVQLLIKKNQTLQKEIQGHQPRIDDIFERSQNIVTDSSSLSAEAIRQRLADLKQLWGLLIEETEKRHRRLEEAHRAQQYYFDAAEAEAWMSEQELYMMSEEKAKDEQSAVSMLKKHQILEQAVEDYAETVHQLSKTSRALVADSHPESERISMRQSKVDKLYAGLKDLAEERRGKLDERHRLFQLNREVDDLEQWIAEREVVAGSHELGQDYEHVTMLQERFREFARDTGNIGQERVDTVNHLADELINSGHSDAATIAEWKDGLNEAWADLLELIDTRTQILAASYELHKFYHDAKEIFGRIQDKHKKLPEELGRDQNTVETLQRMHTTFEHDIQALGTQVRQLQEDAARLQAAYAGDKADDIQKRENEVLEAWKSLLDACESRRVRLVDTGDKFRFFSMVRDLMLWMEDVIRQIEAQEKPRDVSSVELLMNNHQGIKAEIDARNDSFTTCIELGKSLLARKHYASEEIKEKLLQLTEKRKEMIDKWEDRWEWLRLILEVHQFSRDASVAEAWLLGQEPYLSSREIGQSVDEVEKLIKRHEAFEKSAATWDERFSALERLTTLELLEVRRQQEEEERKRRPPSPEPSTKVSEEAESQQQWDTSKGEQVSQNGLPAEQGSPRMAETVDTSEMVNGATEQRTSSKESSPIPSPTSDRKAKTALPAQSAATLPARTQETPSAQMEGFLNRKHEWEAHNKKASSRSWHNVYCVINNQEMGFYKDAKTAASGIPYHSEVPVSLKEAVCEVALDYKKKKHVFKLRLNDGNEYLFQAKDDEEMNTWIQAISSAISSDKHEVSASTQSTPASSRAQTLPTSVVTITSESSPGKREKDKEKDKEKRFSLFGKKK"}, "[8]": {"biological_target": "Fibronectin (Homo sapiens) (UniProt P02751)"}, "[9]": {"biological_target": "T-complex protein 1 subunit theta (Homo sapiens) (UniProt P50990)"}, "[10]": {"biological_target": "60S ribosomal protein L8 (Homo sapiens) (UniProt P62917)"}, "[11]": {"biological_target": "Tubulin beta-6 chain (Homo sapiens) (UniProt Q9BUF5)"}, "[12]": {"biological_target": "Serine/threonine-protein phosphatase 2A 65 kDa regulatory subunit A alpha isoform (Homo sapiens) (UniProt P30153)"}, "[13]": {"biological_target": "Probable ATP-dependent RNA helicase DDX6 (Homo sapiens) (UniProt P26196)"}, "[14]": {"biological_target": "60S ribosomal protein L19 (Homo sapiens) (UniProt P84098)"}, "[15]": {"biological_target": "Heterogeneous nuclear ribonucleoprotein H (Homo sapiens) (UniProt G8JLB6)"}, "[16]": {"biological_target": "60S ribosomal protein L18a (Homo sapiens) (UniProt Q02543)"}, "[17]": {"biological_target": "Splicing factor 3B subunit 3 (Homo sapiens) (UniProt Q15393)"}, "[18]": {"biological_target": "ADP/ATP translocase 2 (Homo sapiens) (UniProt P05141)"}, "[19]": {"biological_target": "Clathrin heavy chain (Homo sapiens) (UniProt Q00610)"}, "[20]": {"biological_target": "Signal transducer and activator of transcription 3 (Homo sapiens) (UniProt P40763)", "sequence (P40763 2-770 limits assumed)": "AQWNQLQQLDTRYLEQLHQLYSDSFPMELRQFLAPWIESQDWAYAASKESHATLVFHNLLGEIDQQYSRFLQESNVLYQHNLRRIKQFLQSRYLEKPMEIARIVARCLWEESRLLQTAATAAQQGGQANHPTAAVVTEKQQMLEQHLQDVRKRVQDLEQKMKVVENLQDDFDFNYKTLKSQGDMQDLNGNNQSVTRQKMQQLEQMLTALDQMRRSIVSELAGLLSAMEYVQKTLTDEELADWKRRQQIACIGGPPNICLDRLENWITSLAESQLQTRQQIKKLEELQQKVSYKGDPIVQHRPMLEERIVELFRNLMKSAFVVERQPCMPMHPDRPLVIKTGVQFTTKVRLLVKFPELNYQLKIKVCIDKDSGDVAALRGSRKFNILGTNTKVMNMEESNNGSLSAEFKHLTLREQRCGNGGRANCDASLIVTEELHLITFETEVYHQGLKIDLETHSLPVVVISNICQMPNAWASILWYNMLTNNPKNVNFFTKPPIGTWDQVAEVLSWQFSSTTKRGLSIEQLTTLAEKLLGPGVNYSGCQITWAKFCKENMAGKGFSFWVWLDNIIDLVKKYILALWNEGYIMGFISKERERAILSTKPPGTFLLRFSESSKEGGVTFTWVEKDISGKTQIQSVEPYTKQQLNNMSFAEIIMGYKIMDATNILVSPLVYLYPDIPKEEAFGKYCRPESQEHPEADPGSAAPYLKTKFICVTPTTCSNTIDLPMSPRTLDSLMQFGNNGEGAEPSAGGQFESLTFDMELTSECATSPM"}, "Plectin (Homo sapiens)": {"biological_target": "Plectin (Homo sapiens) (UniProt Q15149)"}, "Vimentin (Homo sapiens)": {"biological_target": "Vimentin (Homo sapiens) (UniProt P08670)"}, "[21]": {"biological_target": "Heat shock protein HSP 90-beta (Homo sapiens) (UniProt P08238)"}, "[22]": {"biological_target": "S-adenosylhomocysteine hydrolase-like protein 1 (Homo sapiens) (UniProt O43865)"}, "[23]": {"biological_target": "60S ribosomal protein L13 (Homo sapiens) (UniProt P26373)"}, "[24]": {"biological_target": "Importin subunit beta-1 (Homo sapiens) (UniProt Q14974)"}, "[25]": {"biological_target": "WD repeat-containing protein 1 (Homo sapiens) (UniProt O75083)"}, "[26]": {"biological_target": "26S proteasome non-ATPase regulatory subunit 2 (Homo sapiens) (UniProt Q13200)", "sequence (Q13200 whole entry)": "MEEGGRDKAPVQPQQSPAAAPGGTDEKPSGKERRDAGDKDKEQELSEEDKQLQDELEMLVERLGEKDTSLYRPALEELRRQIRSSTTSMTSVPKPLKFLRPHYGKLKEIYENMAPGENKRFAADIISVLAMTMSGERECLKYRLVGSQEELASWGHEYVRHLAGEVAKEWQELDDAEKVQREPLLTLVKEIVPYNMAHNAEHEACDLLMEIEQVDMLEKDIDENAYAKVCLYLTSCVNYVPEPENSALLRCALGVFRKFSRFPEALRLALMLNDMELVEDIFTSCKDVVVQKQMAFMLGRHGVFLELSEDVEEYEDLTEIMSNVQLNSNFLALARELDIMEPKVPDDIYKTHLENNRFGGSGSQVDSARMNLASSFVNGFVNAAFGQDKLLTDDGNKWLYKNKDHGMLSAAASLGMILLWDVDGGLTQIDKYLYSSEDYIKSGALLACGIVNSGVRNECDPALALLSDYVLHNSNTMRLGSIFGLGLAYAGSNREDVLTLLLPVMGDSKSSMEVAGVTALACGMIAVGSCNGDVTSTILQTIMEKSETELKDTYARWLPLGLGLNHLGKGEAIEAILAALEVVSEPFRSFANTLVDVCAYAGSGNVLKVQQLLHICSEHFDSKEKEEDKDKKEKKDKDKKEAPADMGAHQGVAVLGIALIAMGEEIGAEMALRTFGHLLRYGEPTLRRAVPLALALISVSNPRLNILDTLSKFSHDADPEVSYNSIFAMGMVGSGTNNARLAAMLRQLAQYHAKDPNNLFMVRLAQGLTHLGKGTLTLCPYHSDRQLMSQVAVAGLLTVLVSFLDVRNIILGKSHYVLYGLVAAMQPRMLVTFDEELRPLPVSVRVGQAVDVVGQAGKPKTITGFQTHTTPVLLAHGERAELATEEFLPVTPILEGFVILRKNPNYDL"}, "Caprin-1 (Homo sapiens)": {"biological_target": "Caprin-1 (Homo sapiens) (UniProt Q14444)"}, "[27]": {"biological_target": "Tubulin beta-4B chain (Homo sapiens) (UniProt P68371)"}, "[28]": {"biological_target": "AP-2 complex subunit beta (Homo sapiens) (UniProt P63010)"}, "[29]": {"biological_target": "Aspartyl/asparaginyl beta-hydroxylase (Homo sapiens) (UniProt Q12797)"}, "[30]": {"biological_target": "Tubulin alpha chain (Homo sapiens) (UniProt F5H5D3)"}, "[31]": {"biological_target": "AP-2 complex subunit alpha-1 (Homo sapiens) (UniProt O95782)"}, "[32]": {"biological_target": "Alpha-actinin-4 (Homo sapiens) (UniProt O43707)"}, "Serpin B3 (Homo sapiens)": {"biological_target": "Serpin B3 (Homo sapiens) (UniProt P29508)"}}}
{"substance": "i3XFLAG-NLS-CTDaa154-424", "values": [{"measurement": "PSMs", "setting": "[1]", "result": 3, "unit": "PSMs"}, {"measurement": "PSMs", "setting": "[2]", "result": 5, "unit": "PSMs"}, {"measurement": "PSMs", "setting": "Filamin-C (Homo sapiens)", "result": 7, "unit": "PSMs"}, {"measurement": "PSMs", "setting": "[3]", "result": 3, "unit": "PSMs"}, {"measurement": "PSMs", "setting": "[4]", "result": 3, "unit": "PSMs"}, {"measurement": "PSMs", "setting": "[5]", "result": 3, "unit": "PSMs"}, {"measurement": "PSMs", "setting": "[6]", "result": 68, "unit": "PSMs"}, {"measurement": "PSMs", "setting": "[7]", "result": 9, "unit": "PSMs"}, {"measurement": "PSMs", "setting": "[8]", "result": 48, "unit": "PSMs"}, {"measurement": "PSMs", "setting": "[9]", "result": 2, "unit": "PSMs"}, {"measurement": "PSMs", "setting": "[10]", "result": 2, "unit": "PSMs"}, {"measurement": "PSMs", "setting": "[11]", "result": 39, "unit": "PSMs"}, {"measurement": "PSMs", "setting": "[12]", "result": 14, "unit": "PSMs"}, {"measurement": "PSMs", "setting": "[13]", "result": 3, "unit": "PSMs"}, {"measurement": "PSMs", "setting": "[14]", "result": 2, "unit": "PSMs"}, {"measurement": "PSMs", "setting": "[15]", "result": 7, "unit": "PSMs"}, {"measurement": "PSMs", "setting": "[16]", "result": 2, "unit": "PSMs"}, {"measurement": "PSMs", "setting": "[17]", "result": 3, "unit": "PSMs"}, {"measurement": "PSMs", "setting": "[18]", "result": 3, "unit": "PSMs"}, {"measurement": "PSMs", "setting": "[19]", "result": 11, "unit": "PSMs"}, {"measurement": "PSMs", "setting": "[20]", "result": 3, "unit": "PSMs"}, {"measurement": "PSMs", "setting": "Plectin (Homo sapiens)", "result": 21, "unit": "PSMs"}, {"measurement": "PSMs", "setting": "Vimentin (Homo sapiens)", "result": 45, "unit": "PSMs"}, {"measurement": "PSMs", "setting": "[21]", "result": 14, "unit": "PSMs"}, {"measurement": "PSMs", "setting": "[22]", "result": 11, "unit": "PSMs"}, {"measurement": "PSMs", "setting": "[23]", "result": 7, "unit": "PSMs"}, {"measurement": "PSMs", "setting": "[24]", "result": 5, "unit": "PSMs"}, {"measurement": "PSMs", "setting": "[25]", "result": 2, "unit": "PSMs"}, {"measurement": "PSMs", "setting": "[26]", "result": 3, "unit": "PSMs"}, {"measurement": "PSMs", "setting": "Caprin-1 (Homo sapiens)", "result": 5, "unit": "PSMs"}, {"measurement": "PSMs", "setting": "[27]", "result": 70, "unit": "PSMs"}, {"measurement": "PSMs", "setting": "[28]", "result": 26, "unit": "PSMs"}, {"measurement": "PSMs", "setting": "[29]", "result": 9, "unit": "PSMs"}, {"measurement": "PSMs", "setting": "[30]", "result": 47, "unit": "PSMs"}, {"measurement": "PSMs", "setting": "[31]", "result": 31, "unit": "PSMs"}, {"measurement": "PSMs", "setting": "[32]", "result": 11, "unit": "PSMs"}, {"measurement": "PSMs", "setting": "Serpin B3 (Homo sapiens)", "result": 2, "unit": "PSMs"}]}
